In publication PMC5821843, “Development of a high-throughput assay for rapid screening of butanologenic strains” (Scientific Reports, 2018) one finds Km and kcat data, which are given here for two proteins.

Substrate in series [1]: CCCCO
The series can be described thus: purified protein. To be noted: NADP+ co-substrate, CAPS pH 11.6, 1 mM DTT, 0.1 mM FeCl2, 80 °C, anaerobic, aerobically purified enzyme. In kind it is biochemical, Pseudothermotoga hypogea.

Substrate in series [2]: CCO
The series can be described thus: purified protein. To be noted: 330 µM NAD+, 8 µM PMS, 330 µM NBT, 0.1% gelatin, 100 mM Tris-HCl pH 8.6, ~22 °C.

A word on the Km: it is the concentration of substrate that gives half-maximal velocity. For orientation: kcat means the maximal rate divided by the concentration of active sites.

B1: Th ADH (Th ADH_ae) (Pseudothermotoga hypogea DSM 11164 = NBRC 106472) (protein)
chain: MENFVFHNPTKLIFGKGTIPKIGEEIKSFGIKKVLMLYGGGSIKKNGVYDQVVESLKRNGIEWVEVSGVKPNPVLSKVHEAIEVCRKENVEAVLGVGGGSVIDSAKAIAAGVLYEGDIWDAFAGKHKINNALPVFAILTISATGTEMNGNAVVTNEKTQEKWAISAKCLYPRVSIIDPTAQFSLPKEQTVYGAVDAIAHTLEYYFDGSDSDIQNQISESIIRSIMKSTEVLIDNPQDYEARANFAWCATIALNGLTAAGRKGGDWSCHKIEHSLSALYDIAHGAGLAIVFPAWMRYVYKQKPQQFERFAKHVFSIDAVGEEAILKGIDAFKAWLRKVGAPVSLRDVGIPAQDIDRIVENVMKQGPSFGVLKKLGKEDVKQILLIASQ
notes: ORF in pET-33b, N-terminal His6 tag (kept), E. coli BL21(DE3) Rosetta grown anaerobically, purified aerobically; ~42 kDa
Consider B1, for which, in series [1], the Michaelis-Menten constant (Km) is 34.1 ± 0.6 mM and the kcat is 3.943 ± 0.0867 s⁻¹.

B2: Sc ADH (Saccharomyces cerevisiae S288C) (protein)
chain: SIPETQKGVIFYESHGKLEYKDIPVPKPKANELLINVKYSGVCHTDLHAWHGDWPLPVKLPLVGGHEGAGVVVGMGENVKGWKIGDYAGIKWLNGSCMACEYCELGNESNCPHADLSGYTHDGSFQQYATADAVQAAHIPQGTDLAQVAPILCAGITVYKALKSANLMAGHWVAISGAAGGLGSLAVQYAKAMGYRVLGIDGGEGKEELFRSIGGEVFIDFTKEKDIVGAVLKATDGGAHGVINVSVSEAAIEASTRYVRANGTTVLVGMPAGAKCCSDVFNQVVKSISIVGSYVGNRADTREALDFFARGLVKSPIKVVGLSTLPEIYEKMEKGQIVGRYVVDTSK
On to B2, for which, in series [2], the Km is given as 22.7 ± 2.9 mM and the kcat is 20.5 ± 2.37 s⁻¹.
